Positions of bridges follow the written chain, without caps; N, C: chain ends. Non-standard residues stand in square brackets, D forms with d. Primed or numbered codes have the meaning given here. Chains are numbered I, II in the order given. No end group written: not given here. *: point of attachment. Palmitoyl = CCCCCCCCCCCCCCCC(=O)*; PEG2′ = PEG2 spacer unit
How the values were obtained:
[1] = molecular target: T1, FXIIa (Factor XIIa) (human, UniProt P00748 373-615, limits assumed); assay: substrate-based activity assay, off-target selectivity
T1 sequence (looked up): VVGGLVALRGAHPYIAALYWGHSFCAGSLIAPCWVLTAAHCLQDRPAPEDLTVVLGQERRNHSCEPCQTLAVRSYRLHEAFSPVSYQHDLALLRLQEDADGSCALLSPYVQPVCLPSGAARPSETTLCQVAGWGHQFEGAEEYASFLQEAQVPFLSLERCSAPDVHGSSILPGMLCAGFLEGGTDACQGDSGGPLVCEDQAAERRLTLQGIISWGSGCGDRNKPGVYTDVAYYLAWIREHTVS

[2] = molecular target: T2, human Kallikrein-related peptidase 5 (hKLK5) (human, UniProt Q9Y337 67-293, limits assumed); assay: substrate-based activity assay in the presence of 25 µM HSA
T2 construct: Active protease used in substrate-based activity assays and immobilized for phage selection; also called stratum corneum tryptic enzyme (SCTE)
Method: (§1) (a) Kᵢ values of N- and C-terminal tag conjugates in comparison to unconjugated inhibitors measured by inhibition assays in the presence of HSA. […] All data represent the mean of three measurements ±SD.
(§2) Even though the actual concentration of albumin in human blood is at around 600 μM and thus much higher, a higher albumin concentration in the assay was not possible, as it interfered with the protease activity.

[3] = molecular target: T3, human serum albumin (HSA) (human, UniProt P02768 25-609); assay: fluorescence polarization, dilution series of human serum
Method: (b) Kd values of conjugates for HSA assessed by fluorescence polarization. A dilution serious of human serum was used. […] All data represent the mean of three measurements ±SD.
Thus, the dissociation constants (Kd) of the molecules for HSA were tested with a fluorescence polarization (FP) assay using the fluorescein moiety in the albumin tag. The fluorescence anisotropy of the molecules in a dilution series of human serum was measured and Kd values were calculated.

[4] = molecular target: T4, human Kallikrein-related peptidase 7 (hKLK7) (human, UniProt P49862 30-253); assay: substrate-based activity assay in the presence of 25 µM HSA
T4 construct: Active protease used in substrate-based activity assays and immobilized for phage selection; also called stratum corneum chymotryptic enzyme (SCCE)
Method: as §1, §2

[5] = molecular target: T5, mouse serum albumin (MSA) (mouse, UniProt P07724 25-608); assay: fluorescence polarization, dilution series of mouse albumin in PBS
T5 construct: also called mouse albumin

[6] = molecular target: T3, human serum albumin (HSA); assay: fluorescence polarization
[7] = molecular target: T4, human Kallikrein-related peptidase 7 …; assay: substrate-based activity assay

T4 sequence (P49862 30-253 limits assumed): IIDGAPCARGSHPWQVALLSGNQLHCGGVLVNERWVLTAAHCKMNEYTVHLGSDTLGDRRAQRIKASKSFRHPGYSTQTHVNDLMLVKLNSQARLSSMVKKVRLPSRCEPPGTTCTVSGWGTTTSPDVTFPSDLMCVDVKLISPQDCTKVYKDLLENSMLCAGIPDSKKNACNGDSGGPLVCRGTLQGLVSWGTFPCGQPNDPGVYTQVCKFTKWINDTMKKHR
T2 sequence (Q9Y337 67-293 limits assumed): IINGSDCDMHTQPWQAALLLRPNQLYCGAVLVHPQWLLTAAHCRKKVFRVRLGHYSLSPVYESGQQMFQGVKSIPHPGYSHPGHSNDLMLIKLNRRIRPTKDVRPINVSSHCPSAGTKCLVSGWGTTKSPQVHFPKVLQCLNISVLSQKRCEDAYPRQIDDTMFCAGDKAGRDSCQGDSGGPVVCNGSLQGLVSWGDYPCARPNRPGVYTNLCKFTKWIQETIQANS
T5 sequence (P07724 25-608 limits assumed): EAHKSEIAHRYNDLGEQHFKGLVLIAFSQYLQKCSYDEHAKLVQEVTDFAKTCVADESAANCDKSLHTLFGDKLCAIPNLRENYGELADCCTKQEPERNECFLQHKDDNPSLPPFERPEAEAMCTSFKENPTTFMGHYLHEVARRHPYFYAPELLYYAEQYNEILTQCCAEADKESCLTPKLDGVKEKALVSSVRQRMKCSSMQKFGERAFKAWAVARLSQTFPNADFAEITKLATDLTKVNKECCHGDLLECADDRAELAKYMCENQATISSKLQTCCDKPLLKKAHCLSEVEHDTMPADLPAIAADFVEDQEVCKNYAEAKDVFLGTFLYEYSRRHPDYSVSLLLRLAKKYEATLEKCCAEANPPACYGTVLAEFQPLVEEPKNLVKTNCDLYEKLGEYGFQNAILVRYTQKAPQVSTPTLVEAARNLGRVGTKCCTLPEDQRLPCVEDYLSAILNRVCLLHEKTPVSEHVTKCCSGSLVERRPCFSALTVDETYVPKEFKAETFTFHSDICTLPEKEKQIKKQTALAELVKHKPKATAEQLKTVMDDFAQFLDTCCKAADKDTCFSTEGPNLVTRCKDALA

Binder: GCTRQYPC (linker 2-8 via 1,3‑dibromoacetone, also called compound 035) [peptide 035 (lead KLK5 inhibitor)]
- fold weaker than the Ki value for KLK5 [1]: ~4300 fold

B1: N-terminal albumin tag conjugate of KLK5 inhibitor 035 (peptide)
peptide 1: {5(6)‑carboxyfluorescein}-EYEK(Palmitoyl)EYE
peptide 2: GCTRQYPC
modifications: bridge II:2-II:8; not fully specified (C-terminus, bridges); also: chain 1 C-terminus joined via PEG2 to N-terminus of chain 2 (one linear molecule)
notes: also called N-terminal conjugate (KLK5)
- Ki [2]: 23 nM
- fold loss in activity compared to the cyclic peptide alone [2]: 10 fold
- binding result [3]: binds

B2: N-terminal albumin tag conjugate of KLK7 inhibitor 096 (peptide)
peptide 1: {5(6)‑carboxyfluorescein}-EYEK(Palmitoyl)EYE[PEG2′]
peptide 2: PCLYLARCS
modifications: linker II:2-II:8 via 1,3‑dibromoacetone; also: tag C-terminus joined through PEG2 to inhibitor N-terminus (one linear molecule)
notes: also called N-terminal conjugate (KLK7)
- Ki [4]: 106 nM
- fold loss in activity compared to the cyclic peptide alone [4]: 6.6 fold
- binding result [3]: binds

B3: KLK5 inhibitor 035-tag (C-terminal albumin tag conjugate of 035) (peptide)
peptide 1: GCTRQYPCGKG
peptide 2: EYEK(Palmitoyl)EYE
modifications: bridge I:2-I:8; not fully specified (some residues, N-terminus, bridges); also: chain 2 (albumin tag) attached via PEG2 to Lys10 side chain of chain 1 (branched)
- fold improvement in the Ki value compared to the cyclic peptide alone [2]: 1.8 fold
- binding result [5]: binds
- fold loss in affinity (Kd) for HSA on conjugation [3]: 2.1 fold

B4: KLK7 inhibitor 096-tag (C-terminal albumin tag conjugate of 096) (peptide)
peptide 1: PCLYLARCSGKG
peptide 2: EYEK(Palmitoyl)EYE
modifications: bridge I:2-I:8; not fully specified (some residues, N-terminus, bridges); also: chain 2 (albumin tag) attached via PEG2 to Lys11 side chain of chain 1 (branched)
notes: Branched molecule
- fold loss in affinity (Kd) for HSA on conjugation [3]: 2.9 fold

B5: albumin tag variant peptide 263 (peptide)
peptide: EYEKEYEK
modifications: pentanedioic acid appended to the N-terminus through a PEG2 unit; Lys 4 side chain acylated with palmitic acid; additional C-terminal Lys carries 5(6)-carboxyfluorescein on its side chain
- factor recovered in HSA affinity compared to tag-F [6]: 2 fold

B6: albumin tag variant peptide 266 (peptide)
peptide: EYEKEYEK
modifications: benzoic acid coupled to the amine of a gamma-coupled glutamic acid at the N-terminus (through PEG2); Lys 4 side chain acylated with palmitic acid; additional C-terminal Lys carries 5(6)-carboxyfluorescein on its side chain
- further factor recovered in HSA affinity by the first aromatic ring [6]: 2 fold

B7: albumin tag variant peptide 282 (peptide)
peptide: EYEKEYEK
modifications: biphenyl-3-carboxylic acid cap at the N-terminus (based on peptide 266: on a gamma-coupled glutamic acid, through PEG2); Lys 4 side chain acylated with palmitic acid; additional C-terminal Lys carries 5(6)-carboxyfluorescein on its side chain
notes: also called tag variant 282
- factor of improvement in HSA affinity over peptide 266 [6]: 4 fold

B8: albumin tag variant peptide 284 (peptide)
peptide: EYEKEYEK
modifications: 2-naphthalenecarboxylic acid cap at the N-terminus (based on peptide 266: on a gamma-coupled glutamic acid, through PEG2); Lys 4 side chain acylated with palmitic acid; additional C-terminal Lys carries 5(6)-carboxyfluorescein on its side chain
notes: also called tag variant 284
- factor of improvement in HSA affinity over peptide 266 [6]: 4 fold

B9: SSSKSSS-tag (peptide)
peptide: SSSK(Palmitoyl)SSS
modifications: also: fluorescein label, position not given here
notes: Tag variant with all Tyr and Glu replaced by Ser; also called tag composed of Ser residues
- binding result [5]: binds

Binder: PCLYLARCS (linker 2-8 via 1,3‑dibromoacetone) [peptide 096 (lead KLK7 inhibitor)]
- fold better activity than peptide 114 [7]: 2 fold

Reference: patent US20220267379A1 (ECOLE POLYTECHNIQUE FEDERALE DE LAUSANNE EPFL, published 2022)
